According to IntAct's records for PubMed 36753016:

Molecular target: ubp18_human USP18 (UniProt Q9UMW8)
Sequence (Q9UMW8 whole entry): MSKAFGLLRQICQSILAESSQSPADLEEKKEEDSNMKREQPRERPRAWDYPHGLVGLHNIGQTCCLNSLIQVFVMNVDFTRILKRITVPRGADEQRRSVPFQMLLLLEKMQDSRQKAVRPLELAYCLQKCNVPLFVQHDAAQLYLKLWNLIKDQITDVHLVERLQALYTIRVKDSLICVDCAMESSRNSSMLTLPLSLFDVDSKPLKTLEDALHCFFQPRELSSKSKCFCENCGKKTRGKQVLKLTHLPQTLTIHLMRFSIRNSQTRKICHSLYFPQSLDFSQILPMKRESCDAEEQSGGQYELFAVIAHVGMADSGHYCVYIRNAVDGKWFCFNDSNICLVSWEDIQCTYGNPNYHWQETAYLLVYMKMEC

**Q.** For “Signal transducer and activator of transcription 2 (Homo sapiens), P52630 A219V”, which “effect of a mutation on the interaction” value is on record?
**A.** decreasing interaction strength
